# Test results reported in patent US20130230528A1 (Novartis, published 2013).
# B1: soluble recombinant human CD40L (Alexis Corporation) (ligand)
# chain: GDQNPQIAAHVISEASSKTTSVLQWAEKGYYTMSNNLVTLENGKQLTVKRQGLYYIYAQVTFCSNREASSQAPFIASLCLKSPGRFERILLRAANTHSSAKPCGQQSIHLGGVFELQPGASVFVNVTDPSQVSHGTGFTSFGLLKL
# B2: CHIR-12.12 fully human anti-CD40 monoclonal antibody (antibody, human IgG1, kappa, V domains shown)
# VH: QVQLVESGGGVVQPGRSLRLSCAASGFTFSSYGMHWVRQAPGKGLEWVAVISYEESNRYHADSVKGRFTISRDNSKITLYLQMNSLRTEDTAVYYCARDGGIAAPGPDYWGQGTLVTVSS
# VL: DIVMTQSPLSLTVTPGEPASISCRSSQSLLYSNGYNYLDWYLQKPGQSPQVLISLGSNRASGVPDRFSGSGSGTDFTLKISRVEAEDVGVYYCMQARQTPFTFGPGTKVDIRR
# notes: Human IgG1 kappa from XenoMouse hybridoma; also called 153.8E2.D10.D6.12.12
# B3: CHIR-5.9 fully human anti-CD40 monoclonal antibody (antibody, V domains shown)
# VH: EVQLVQSGAEVKKPGESLKISCKGSGYSFTSYWIGWVRQMPGKGLEWMGIIYPGDSDTRYSPSFQGQVTISADKSISTAYLQWSSLKASDTAMYYCARGTAAGRDYYYYYGMDVWGQGTTVTVSS
# VL: AIVMTQPPLSSPVTLGQPASISCRSSQSLVHSDGNTYLNWLQQRPGQPPRLLIYKFFRRLSGVPDRFSGSGAGTDFTLKISRVEAEDVGVYYCMQVTQFPHTFGQGTRLEIKR
# notes: Human IgG1 kappa from XenoMouse hybridoma; also called mAb CHIR-5.9; 131.2F8.5.9
# B4: CD40L on transfected, formaldehyde-fixed CHO cells (ligand)
# chain: MIETYNQTSPRSAATGLPISMKIFMYLLTVFLITQMIGSALFAVYLHRRLDKIEDERNLHEDFVFMKTIQRCNTGERSLSLLNCEEIKSQFEGFVKDIMLNKEETKKENSFEMQKGDQNPQIAAHVISEASSKTTSVLQWAEKGYYTMSNNLVTLENGKQLTVKRQGLYYIYAQVTFCSNREASSQAPFIASLCLKSPGRFERILLRAANTHSSAKPCGQQSIHLGGVFELQPGASVFVNVTDPSQVSHGTGFTSFGLLKL
# Assays:
# [1] = biological target: T1, human CD40 on the cell surface (normal B cells, B-CLL cells, EBV-transformed B cells, multiple myeloma cell … (human, UniProt P25942 20-277)); experiment: cell-based or functional assay
# T1 sequence (P25942 20-277): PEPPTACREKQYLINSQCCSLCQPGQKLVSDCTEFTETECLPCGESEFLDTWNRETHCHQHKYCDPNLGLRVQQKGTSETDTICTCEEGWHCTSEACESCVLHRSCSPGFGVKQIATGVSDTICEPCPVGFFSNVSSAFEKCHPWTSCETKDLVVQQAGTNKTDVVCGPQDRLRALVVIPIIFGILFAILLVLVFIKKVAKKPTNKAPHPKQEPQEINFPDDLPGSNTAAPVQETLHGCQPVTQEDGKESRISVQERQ
# [2] = biological target: T2, human CD40, soluble / recombinant (ELISA and Biacore) (human, UniProt P25942 20-193); experiment: Biacore (assay named in paragraph 181)
# T2 construct: also called soluble CD40; recombinant CD40
# T2 sequence (P25942 20-193): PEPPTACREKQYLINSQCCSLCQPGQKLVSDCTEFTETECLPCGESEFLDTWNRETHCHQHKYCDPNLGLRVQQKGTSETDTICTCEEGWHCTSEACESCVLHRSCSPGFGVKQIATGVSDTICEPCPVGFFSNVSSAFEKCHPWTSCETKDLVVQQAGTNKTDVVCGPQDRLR
# [3] = biological target: T1, human CD40 on the cell surface (normal …); experiment: cell-based or functional assay; remark: listed apart in the source
# [4] = biological target: T1, human CD40 on the cell surface (normal …); experiment: cell-based or functional assay; remark: listed apart in the source
binder,measurement,setting,value
B1,"CellTiter-Glo viability, fold induction by rhsCD40L, CLL subject M1",[1],3.1 fold
same,"CellTiter-Glo viability, fold induction by rhsCD40L, CLL subject M2",[1],2.9 fold
same,"CellTiter-Glo viability, fold induction by rhsCD40L, CLL subject M3",[1],1.9 fold
same,"CellTiter-Glo viability, fold induction by rhsCD40L, CLL subject M4",[1],2.3 fold
same,"CellTiter-Glo viability, fold induction by rhsCD40L, CLL subject M5",[1],3.5 fold
same,"CellTiter-Glo viability, fold induction by rhsCD40L, CLL subject M6",[1],2.6 fold
same,"CellTiter-Glo viability, fold induction by rhsCD40L, CLL subject M7",[1],3.8 fold
same,"CellTiter-Glo viability, fold induction by rhsCD40L, Normal B",[1],3 fold
same,"cPARP flow cytometry, fold inhibition by rhsCD40L, CLL subject M1",[1],5.8 fold
same,"cPARP flow cytometry, fold inhibition by rhsCD40L, CLL subject M2",[1],2.6 fold
same,"cPARP flow cytometry, fold inhibition by rhsCD40L, CLL subject M3",[1],2.1 fold
same,"cPARP flow cytometry, fold inhibition by rhsCD40L, CLL subject M4",[1],3.2 fold
same,"cPARP flow cytometry, fold inhibition by rhsCD40L, CLL subject M5",[1],2.3 fold
same,"cPARP flow cytometry, fold inhibition by rhsCD40L, CLL subject M6",[1],0.9 fold
same,"cPARP flow cytometry, fold inhibition by rhsCD40L, CLL subject M7",[1],5.2 fold
same,"cPARP flow cytometry, fold inhibition by rhsCD40L, Normal B",[1],3 fold
B2,Kd,[2],0.5 nM
B3,Kd,[2],12 nM
B4,"MCP-1 secretion, normal B cells, Donor 1, fold induction over background",[3],5.5 fold
same,"MCP-1 secretion, normal B cells, Donor 3, fold induction over background",[3],1.7 fold
same,"MIP-1β secretion, normal B cells, Donor 1, fold induction over background",[3],2.2 fold
same,"MIP-1β secretion, normal B cells, Donor 2, fold induction over background",[3],2.6 fold
same,"MIP-1β secretion, normal B cells, Donor 3, fold induction over background",[3],17.8 fold
same,"hIL-6 secretion, normal B cells, Donor 1, fold induction over background",[3],5.7 fold
same,"hIL-6 secretion, normal B cells, Donor 2, fold induction over background",[3],3.8 fold
same,"hIL-6 secretion, normal B cells, Donor 3, fold induction over background",[3],20.5 fold
same,"hIL-8 secretion, normal B cells, Donor 1, fold induction over background",[3],7.7 fold
same,"hIL-8 secretion, normal B cells, Donor 2, fold induction over background",[3],14.7 fold
same,"hIL-8 secretion, normal B cells, Donor 3, fold induction over background",[3],49.3 fold
same,"hIL-10 secretion, normal B cells, Donor 1, fold induction over background",[3],3.6 fold
same,"hIL-10 secretion, normal B cells, Donor 3, fold induction over background",[3],3.6 fold
same,"hTNF-α secretion, normal B cells, Donor 1, fold induction over background",[3],3.7 fold
same,"hTNF-α secretion, normal B cells, Donor 2, fold induction over background",[3],4.8 fold
same,"hTNF-α secretion, normal B cells, Donor 3, fold induction over background",[3],22.8 fold
same,"MCP-1 secretion, CLL cells, CLL #1, fold induction over background",[4],5.5 fold
same,"hGM-CSF secretion, CLL cells, CLL #1, fold induction over background",[4],7.6 fold
same,"hIL-8 secretion, CLL cells, CLL #1, fold induction over background",[4],4 fold
same,"hIL-10 secretion, CLL cells, CLL #1, fold induction over background",[4],9.2 fold
same,"hTNF-α secretion, CLL cells, CLL #1, fold induction over background",[4],3.3 fold
